Measurements reported in patent US20200199207A1.
Residue numbers refer to the chain shown, from its start.

B1: h32B10 (antibody, V domains shown)
VH: QVQLVQSGAEVKKPGASVKVSCRASGYIFRNFDINWVRQATGQGLEWMGWMSPKSGDTGYAQKFQGRVTMTRDTSINTAYMELSSLTSEDSAVYYCARGVDGTNWGQGTRVTVSS
VL: DIVMTQSPDSLGVSLGERATISCKSSQSILDNSNNKNFIAWFQQKPGQPPKLLIYWASARESGVPDRFSGSGSGTEFTLTINSLQAEDVAVYYCYQYYSTPHTFGQGTKLDLR
B2: h2F8 (antibody, V domains shown)
VH: EVQLVESGGGLVKPGGSLRLSCAASGFIFSDYNMNWVRQAPGKGLEWVSSITRSSRTIYYADSVKGRFTISRDNAKNSLHLQMNSLRDADTAVYYCAREDFDVSTGPYYMDVWGNGTTVIVSS
VL: EIVLTQSPGTLSLSPGERATLSCRASQSVSNMFLVWYQQKPGQAPRLLMYGASTRATDIPDRFSGSGSGTDFTLTISRLEPEDFAVYYCQQNGNSPYTFGQGTKLEIK
B3: h7G6 (antibody, V domains shown)
VH: QVQLVESGGGVVQPGRSLRLSCAASGIAFNDYTMHWVRRSPDKGLEWVAAISYGGTNKYYADSVKGRFTISRDSSKNTLFLQMDSLRVEDTAVYYCARDSGYRSLLHWGQGTLVTVSS
VL: EIVLTQSPLSLPVTPGEPASISCRSSQSLVHRNGYNYLDWYLQKPGQSPQLLIYMASKRASGVPDRFSGSGSGTEFTLKISRVEAEDVGIYYCMQALQTWTFGQGTKVEVN
B4: h37D5 (antibody, V domains shown)
VH: EEQLVESGGRLLRPGESLSLSCAAVGFNFGDFGMAWVRQPPGKGLEWVAGINWSGHSTGFVDSMKGRLTISRDSAKSSLFLQMNSLRGEDTAVYYCARVGRLCSGDICDSMGAFDLWGQGTMVTVSS
VL: DIQMTQSPSTLSASIGDRVTITCRASQTIDNWLAWYQQRPGKAPKLLIYQASSLQSGVSSRFRGSGSGTEFTLTITSLQPDDFATYYCQKSNGYSRTFGQGTKVEIK
B5: h12G10 (antibody, human IgG1, V domains shown)
VH: EVQLLESGGRLLRPGGSLSLSCVASGFYFGDFGMSWVRQVPGKGLEWVSGIDWSGRSTGYVDSMKGRLTISRDNDKSSLYLQMNDLRGEDTAVYYCARVGRLCSGDSCDSMGAFDLWGQGTMVTVSS
VL: B4 VL with M4L, R18S, T28N, R39K, K45R, Q50K, Q55G, R61K, S67F, E105D
B6: hm37D5 (antibody, V domains shown)
VH: B4 VH
VL: B4 VL
B7: hm12G10 (antibody, V domains shown)
VH: B5 VH
VL: B4 VL with M4L, R18S, T28N, R39K, K45R, Q50K, Q55G, R61K, S67F, E105D

Each binder was assayed against natural peanut extract (assay: ELISA, antigen-coated plate).
An EC50 of 4.8 ng/mL was found for B1 in this work.
An EC50 of 2.8 ng/mL was found for B2 in this work.
An EC50 of 2.8 ng/mL was found for B3 in this work.
An EC50 of 6.5 ng/mL was found for B4 in this work.
An EC50 of 8.1 ng/mL was found for B5 in this work.
An EC50 of 7.1 ng/mL was found for B6 in this work.
An EC50 of 8.5 ng/mL was found for B7 in this work.
